The record followed here is PMC7791793.

The target in assay [1] is human ether-à-go-go-related gene potassium channel 1 (hERG), wild type, in Xenopus laevis oocytes (human) (UniProt Q12809). In words: two-electrode voltage clamp (fraction of uninhibited tail currents). Background: Two-electrode voltage clamp holds a large cell at a set potential and records current.
The target in assay [2] is human ether-à-go-go-related gene potassium channel 1 (hERG), stable HEK 293 cell line (human) (UniProt Q12809).
The target in assay [3] is human ether-à-go-go-related gene potassium channel 1 (hERG), wild type, in Xenopus laevis oocytes (human) (UniProt Q12809).

“recombinant APETx1 (wild type) (peptide)”: in assay [1], the apparent Kd, model (A): four equivalent and independent binding sites per channel, fractional toxin-sensitive current is 1.2 µM; the apparent Kd, model (B): four equivalent and independent binding sites per channel, fully toxin-sensitive current came out at 1.7 µM; the apparent Kd, model (C): one binding site per channel, fractional toxin-sensitive current was 0.23 µM. In assay [2], the toxin-induced shift of the half-maximal activation voltage (ΔV1/2) of hERG, whole-cell patch clamp, APETx1 0.1-10 μM; value at 10 μM was 23.9 mV. The toxin-induced shift of the half-maximal activation voltage (ΔV1/2) of hERG, TEVC recordings in oocytes, APETx1 0.1-10 μM; value at 10 μM in assay [3] was 21.9 mV.
